Laboratory results: publication PMC6438714

Biological target: DyLight488-METTL14 (UniProt Q9HCE5)
Assay: MST

UniProt Q9HCE5, sequence (Q9HCE5 whole entry): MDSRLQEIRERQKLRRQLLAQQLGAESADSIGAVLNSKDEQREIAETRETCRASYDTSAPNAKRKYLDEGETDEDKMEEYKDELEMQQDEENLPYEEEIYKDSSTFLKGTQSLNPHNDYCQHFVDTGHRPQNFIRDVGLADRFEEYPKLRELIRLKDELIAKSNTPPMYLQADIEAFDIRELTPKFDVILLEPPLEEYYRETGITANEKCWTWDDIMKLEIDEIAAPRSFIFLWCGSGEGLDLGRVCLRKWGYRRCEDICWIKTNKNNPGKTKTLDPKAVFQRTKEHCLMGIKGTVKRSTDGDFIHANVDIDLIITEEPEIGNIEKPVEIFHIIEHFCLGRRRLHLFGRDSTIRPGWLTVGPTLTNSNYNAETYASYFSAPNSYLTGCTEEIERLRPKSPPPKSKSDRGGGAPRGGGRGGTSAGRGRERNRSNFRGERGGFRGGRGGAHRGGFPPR

## full length H3K36me3 (from UniProt P68431 1-136) (natural protein)
  Kd: 1860 nM
